Experimental findings from PMC4351158 (Structure (London, England : 1993), 2015) are described below.

Where no end group is shown, it is not given here. fluorescein = fluorescein, a fluorescent label on the peptide N-terminus

What is called Kd is the constant that tells how readily two partners part at equilibrium. A low value points to a tighter complex.

Holding throughout (test): fluorescence polarisation
For orientation: Polarisation of emitted light reports the rotation of a fluorescent probe.

Assay [1] deals with T1, wild-type DegS (residues 27-355, without the membrane anchor) (E. coli, UniProt P0AEE3 27-355).
T1 sequence (looked up): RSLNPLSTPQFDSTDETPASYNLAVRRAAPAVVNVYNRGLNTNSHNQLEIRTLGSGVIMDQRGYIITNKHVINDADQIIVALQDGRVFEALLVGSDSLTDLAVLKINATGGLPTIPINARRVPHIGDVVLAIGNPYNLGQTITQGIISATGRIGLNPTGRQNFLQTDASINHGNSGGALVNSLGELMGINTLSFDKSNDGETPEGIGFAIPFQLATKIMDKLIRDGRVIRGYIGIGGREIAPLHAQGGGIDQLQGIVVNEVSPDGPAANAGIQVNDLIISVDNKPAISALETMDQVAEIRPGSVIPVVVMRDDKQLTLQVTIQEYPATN

In assay [2] the target is T2, DegS L164A (E. coli, UniProt P0AEE3 27-355, L164A).
T2 sequence (looked up): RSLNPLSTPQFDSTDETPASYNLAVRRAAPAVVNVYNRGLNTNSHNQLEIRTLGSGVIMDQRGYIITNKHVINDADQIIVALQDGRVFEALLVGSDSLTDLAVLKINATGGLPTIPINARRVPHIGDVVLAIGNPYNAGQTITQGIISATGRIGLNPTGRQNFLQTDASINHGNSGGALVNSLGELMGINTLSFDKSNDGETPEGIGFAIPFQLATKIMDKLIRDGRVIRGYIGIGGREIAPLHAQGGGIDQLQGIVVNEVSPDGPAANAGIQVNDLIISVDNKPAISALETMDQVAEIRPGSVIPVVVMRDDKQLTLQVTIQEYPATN

The target of assay [3] is T3, DegS H198P/P229A (E. coli, UniProt P0AEE3 27-355, H198P | P229A).
T3 sequence (looked up): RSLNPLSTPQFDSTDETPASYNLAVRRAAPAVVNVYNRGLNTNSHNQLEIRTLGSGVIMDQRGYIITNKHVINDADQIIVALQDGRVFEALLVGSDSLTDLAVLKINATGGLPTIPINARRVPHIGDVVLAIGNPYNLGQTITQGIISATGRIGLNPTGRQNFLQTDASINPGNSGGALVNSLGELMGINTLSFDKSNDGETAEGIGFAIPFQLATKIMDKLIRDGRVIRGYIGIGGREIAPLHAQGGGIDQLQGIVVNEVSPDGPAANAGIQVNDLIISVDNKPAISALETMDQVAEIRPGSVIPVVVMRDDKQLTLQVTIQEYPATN

Assay [4] has as its target T4, DegS T169A (E. coli, UniProt P0AEE3 27-355, T169A).
T4 sequence (looked up): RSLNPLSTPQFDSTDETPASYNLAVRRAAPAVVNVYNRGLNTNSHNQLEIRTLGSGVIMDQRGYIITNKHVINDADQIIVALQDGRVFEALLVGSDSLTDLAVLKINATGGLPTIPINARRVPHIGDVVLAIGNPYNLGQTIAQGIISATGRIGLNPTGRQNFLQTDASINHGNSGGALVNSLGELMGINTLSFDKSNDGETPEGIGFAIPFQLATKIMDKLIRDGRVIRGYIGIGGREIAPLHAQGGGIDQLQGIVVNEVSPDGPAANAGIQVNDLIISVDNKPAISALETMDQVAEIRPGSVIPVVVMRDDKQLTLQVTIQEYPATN

Assay [5] addresses T5, DegS R178A (E. coli, UniProt P0AEE3 27-355, R178A).
T5 sequence (looked up): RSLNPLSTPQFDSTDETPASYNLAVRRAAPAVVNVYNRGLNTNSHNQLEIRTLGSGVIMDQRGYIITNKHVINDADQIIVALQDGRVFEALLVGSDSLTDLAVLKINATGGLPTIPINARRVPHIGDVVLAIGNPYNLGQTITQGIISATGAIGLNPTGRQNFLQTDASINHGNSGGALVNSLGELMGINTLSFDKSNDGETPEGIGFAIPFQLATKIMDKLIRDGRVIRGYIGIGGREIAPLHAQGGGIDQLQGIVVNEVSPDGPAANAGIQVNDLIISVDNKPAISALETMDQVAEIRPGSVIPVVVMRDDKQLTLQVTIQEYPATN

The target in assay [6] is T6, DegS H198P (E. coli, UniProt P0AEE3 27-355, H198P).
T6 sequence (looked up): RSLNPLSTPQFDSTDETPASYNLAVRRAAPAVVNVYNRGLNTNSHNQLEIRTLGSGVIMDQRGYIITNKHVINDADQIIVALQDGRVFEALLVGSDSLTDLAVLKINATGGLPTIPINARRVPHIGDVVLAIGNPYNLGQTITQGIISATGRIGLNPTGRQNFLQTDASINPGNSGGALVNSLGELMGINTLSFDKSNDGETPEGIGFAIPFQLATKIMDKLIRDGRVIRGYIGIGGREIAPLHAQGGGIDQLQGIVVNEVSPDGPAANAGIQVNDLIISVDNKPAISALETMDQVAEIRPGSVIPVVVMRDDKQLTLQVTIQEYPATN

Turning to fluorescein-DNRDGNVYYF [fluorescent OMP peptide fluorescein-DNRDGNVYYF], the Kd in assay [1] amounted to 4 ± 0.4 µM; in assay [2], 2.8 ± 0.6 µM; in assay [3] it was 2 ± 0.1 µM; in assay [4] it was 1.8 ± 0.1 µM; in assay [5] it was 3.6 ± 0.2 µM; in assay [6], 2.5 ± 0.3 µM.
